The results in this text go back to the DeepSol protein solubility set.

This series can be described thus: soluble on expression in E. coli; label from the status in PepcDB or PDB records.
Regarding “MELISVTKDNLEQEHICCAISNNKDCQVLSKKNWLNEQFEDGLVFLKGNVRGKCFIEYMPAEKAWAPVEADGYMYINCLWVSGQFKGQGYSNLLLEECIRDSREKGRLGLVVLTSKKKMPYLSDPKFLGYKGFIRADSAEPYFELFYLPFEADAPKPQFKEQVRQPRTEENGFVLYYTRQCPFTAKYVPLIESAAEENNIPFKAVLFKTSGEARNAPAPFTTYSLFYNGRFITNEILSEKRFEKILEAEGLG”, the “soluble on expression in E. coli” value was “not soluble”.
For the sequence “MELLCPAGNLPALKAAIDNGADAVYIGLKDDTNARHFAGLNFTDKKLQEAVNYVHSRKRKLHIAINTFAHPDGYARWQRAVDMAAQLGADALILADLAMLEYAAERYPQVERHVSVQASATNDEAIRFYQRHFDVARVVLPRVLSMHQVKQLSRTSPVPLEVFAFGSLCIMAEGRCYLSSYLTGESPNTVGACSPARFVRWQQTPQGMESRLNDVLIDRYEDHENAGYPTLCKGRYRVDGQRYHALEEPTSLNTLELLPELFAANIASVKIEGRQRSPAYVSQVAKVWRQAIDLYQANPAQFAAKAEWMEQLGAMSEGTQTTLGAYHRKWQ”, the “soluble on expression in E. coli” value is “not soluble”.
With “MELVAYAMAAKLITETVQITINSISETLETINSDPTVRIDNLNELKRRNDEAHSQYMKELKEAREESDDALAKRQATADSQISELINSNNEAIRELQKKFDEDAAAYDRSIKETTREHDQKMKEMRSETREAQEKAERNHREKMSKIKEDHDKERVAALQKIDAAKKEGAEMIALVEMEKQKIVRERADEMNEHHKNMETMTKEYHQKREEIHEVIKNKKLDILKDKREHQRIEHEKISENMKNAFNALLNVQRENNAKHLVSNFQQLFEPVEDVKKLLDSVKIKIELVDGKDPKIEAEQLYDLEEIQAKKSIFENRIRRLRSILIHSSFTDRKLHEICSTTISNIETLMNKSDILSVCHHFPRAVEKQDLKKIKHYADMARSLSDTFSQELGNIIDTFSTSSGMYIIEKEHQEAIEN”, the “soluble on expression in E. coli” value is given as “soluble”.
Next, “MEMFKMSREMLQLAEALASEKNVDAEVVFQALEFALSTAAKKKADREHMDVRVQINRDTGEYQTFRRWLIVADEDYTYPDVEKTIEEIQEEIPDTTIQIGEYYEEQLPNEGFGRQAAQTAKQIILQRIRDAEREQNLNEFLAVKEDIVSGTVKRVERHGIIVEVVAGKLDALIPRDQMIPRENFRSGDRIRALFLRVEEIGNTGRKQIILSRTSGDFLVKLYANEVPEIADGMLEIRAVARDPGQRAKVAVKANDQRIDPQGTCIGVRGSRVNAVSNELSGERIDVVLWSPEPAQFVMSALSPAEVSRIVIDEDKHAVDVIVAEDRLALAIGRGGQNVRLASDLTGWQLNIMTSAEADERNAAEDAAIRRLFMNHLNVDEETADVLVQEGFATLEEVAYVPAAELLAIEGFDEEIVDMLRNRARDAILTMAIAAEEKLGEVSDDMRNLEGVDADMLLSLAEAGITTRDDLAELAVDELIEITGVNEETAKAVILTAREHWFTEDKLEHHHHHH”: “soluble”; “MEMISNNLNWFVGVVEDRMDPLKLGRVRVRVVGLHPPQRAQGDVMGIPTEKLPWMSVIQPITSAAMSGIGGSVTGPVEGTRVYGHFLDKWKTNGIVLGTYGGIVREKPNRLEGFSDPTGQYPRRLGNDTNVLNQGGEVGYDSSSNVIQDSNLDTAINPDDRPLSEIPTDDNPNMSMAEMLRRDEGLRLKVYWDTEGYPTIGIGHLIMKQPVRDMAQINKVLSKQVGREITGNPGSITMEEATTLFERDLADMQRDIKSHSKVGPVWQAVNRSRQMALENMAFQMGVGGVAKFNTMLTAMLAGDWEKAYKAGRDSLWYQQTKGRASRVTMIILTGNLESYGVEVKTPARSLSAMAATVAKSSDPADPPIPNDSRILFKEPVSSYKGEYPYVHTMETESGHIQEFDDTPGQERYRLVHPTGTYEEVSPSGRRTRKTVDNLYDITNADGNFLVAGDKKTNVGGSEIYYNMDNRLHQIDGSNTIFVRGDETKTVEGNGTILVKGNVTIIVEGNADITVKGDATTLVEGNQTNTVNGNLSWKVAGTVDWDVGGDWTEKMASMSSISSGQYTIDGSRIDIGSVDHHHHHH”: “soluble”; “MENAKMNSLIAQYPLVKDLVALKETTWFNPGTTSLAEGLPYVGLTEQDVQDAHARLSRFAPYLAKAFPETAATGGIIESELVAIPAMQKRLEKEYQQPISGQLLLKKDSHLPISGSIKARGGIYEVLAHAEKLALEAGLLTLDDDYSKLLSPEFKQFFSQYSIAVGSTGNLGLSIGIMSARIGFKVTVHMSADARAWKKAKLRSHGVTVVEYEQDYGVAVEEGRKAAQSDPNCFFIDDENSRTLFLGYSVAGQRLKAQFAQQGRIVDADNPLFVYLPCGVGGGPGGVAFGLKLAFGDHVHCFFAEPTHSPCMLLGVHTGLHDQISVQDIGIDNLTAADGLAVGRASGFVGRAMERLLDGFYTLSDQTMYDMLGWLAQEEGIRLEPSALAGMAGPQRVCASVSYQQMHGFSAEQLRNTTHLVWATGGGMVPEEEMNQYLAKGR”: “soluble”.
As to “MENESKTINIELPEEIAQGNYCNLCIVMHSPSEFVLDFIRMVPNRDTARVQNRIILTPDNAKRLLTTLSDNIHRYEVEHGEIHTEQRVSDATFTFPTKIKGEA”, the “soluble on expression in E. coli” value is “soluble”.
As for “MENKLKLVVVGDTYTGKTSLLVAYTKKQFLDNYTTTVFDNWAVSVHIDNKNYAVNLFDTAGQGNYEQIRCLSYPHANVFLVCFSMIDRKTLESCRSTWIPEIRKYAGDNVPIMLVGTKNDLVDDADSRNTVTEDYAKRVAHEIGCHKFYSCSALTHKGLKRVFDESFLAAVGVKLEEETPNPCCTIL”, the “soluble on expression in E. coli” value is listed as “not soluble”.
The value for “MENKRTLVVALGGNALLKRGEPLEADIQRKNIELAARTIAQLTRQWRVVLVHGNGPQVGLLALQNSAYANVTPYPLDILGAESQGMIGYMLQQALKNHLPEREISVLLTQVEVDANDPAFLNPTKYIGPIYDEAQARALQAEKGWVFKADGNAFRRVVPSPQPKRIVENDAIRALISRDHLVICNGGGGVPVVEKADGYHGIEAVIDKDLSAALLASQIHADALLILTDADAVYLDWGKPTQRPLAQVTPELLREMQFDAGSMGPKVTACAEFVSHCRGIAGIGSLADGQAILAGEKGTLIRCETADVDA” was “not soluble”; that for “MENNTILHNYQDWLEHHKMPAGKKKTLVAAIELFSQQGYNGTSTAQIAEKAGISQATIFKYFKTKSDLLSEIMQPMIPELKRDFFPKLQTYTKLEEVVHFIVQDRFQFLTQNADLIKILIQEALVNVKLRKTLLTNIQLTISKDFMAYWQTLKQINPQINPNLSGIEVIRTNVGLLFAYFTQRFILNIPTPSEQKDLLLIEKQILTLLILDTH” was “not soluble”; that for “MEPKVYKPPISKAIGLVVGSVLPVNPRDLEKMMRRLGIKVEQLSADEARIVLGSGETMVFRSPTVIVMRAKGQPPMVYLVGDYTVEKPREETAAEITEEDVALVAEQAGVSMEEARKALEESGGDIAEAILRLKGEE” was “not soluble”.
With “MEPMHKINKVEVRNLQIEDYIQLSQSFKRVYADKDVFWTHEQIETLIRIFPEGQVVTVVDDKIVGCALSIIVDYDMVKGDHTYAKVTGNETFCTHNPEGNILYGIEVFIHPDYRGLRLARRMYEYRKELCEKLNLKAIMFGGRIPNYYKYADTMRPKEYLDKVRSREIYDPVLTFQLSNDFHVRRVMKNYLP”, the “soluble on expression in E. coli” value is “not soluble”.
For the sequence “MEPRFAGYAQKVRDSFARQPVMATLGARIDTLLPGRVELCMPYDRALTQQHGFLHAGIVSTVLDSACGYAAFSLMEEEAAVLTVEFKVNFLNPAEGERFAFRAEVVKPGRTLTVATATAYAFRDGEERAIATMTATLMALIGLEHHHHHH”, the “soluble on expression in E. coli” value is reported as “soluble”.
The value for “MEQQQRYISVLDIGTSKVLALIGEVQDDDKINIVGLGQAPSRGLRAGMVTNIDATVQAIRQAVNDAELMADTKITHVTTGIAGNHIRSLNSQGVVKIKDGEVTQADIDRAIETAKAINIPPDQKILDAVVQDYIIDTQLGVREPIGMSGVRLDTRVHIITGASTAVQNVQKCIERCGLKSD” was “not soluble”; that for “MEQYDQLYRLYKSVDTTTLRGYQEFVDLFPPLSSTVALEQWETASDRLDALKADITDEFPGTGETYAEIAARLTRDEAFTALDLYSKYDRSVNVLVLDVDETLRSAGDTDNEIPRDTLYLLTQFHEAGIPIVVCTGQTLENVKGFMIQGLGNDLVSSGQMSIVYESGNGVFTPKHGEDTKRLLYERLDGAVVDVFETVRRRVLSEAPDAVGKRCHLQGNEFNVTLKPNAEVGSDNAVEIIDESLCYLCGLVGDAIAAQVDAEVDDPAGYARAYFSRDPEILDVLEAGGLPTHADIEDAPEAFRDILERVDLGYYEGDAAELVSLELDKSAGVEEAFDVLGIDDPFALVMGDSKSDLRVMRWVDENDAGIAAAPAHSSPDVLDHVSSRDDLVYEAGDASTVLRTIYGISLVEQLDEQGE” was “soluble”; that for “MEQYYGTGRRKEAVARVFLRPGNGKVTVNGQDFNEYFQGLVRAVAALEPLRAVDALGHFDAYITVRGGGKSGQIDAIKLGIARALVQYNPDYRAKLKPLGFLTRDARVVERKKYGKHKARRAPQYSKR” was “soluble”.
Next, “MERIDSHVSPRYAQIPTFMRLPHDPQPRGYDVVVIGAPYDGGTSYRPGARFGPQAIRSESGLIHGVGIDRGPGTFDLINCVDAGDINLTPFDMNIAIDTAQSHLSGLLKANAAFLMIGGDHSLTVAALRAVAEQHGPLAVVHLDAHSDTNPAFYGGRYHHGTPFRHGIDEKLIDPAAMVQIGIRGHNPKPDSLDYARGHGVRVVTADEFGELGVGGTADLIREKVGQRPVYVSVDIDVVDPAFAPGTGTPAPGGLLSREVLALLRCVGDLKPVGFDVMEVSPLYDHGGITSILATEIGAELLYQYARAHRTQL”: “soluble”; “MERIIQQTDYDALSCKLAAISVGYLPSSGLQRLSVDLSKKYTEWHRSYLITLKKFSRRAFGKVDKAMRSSFPVMNYGTYLRTVGIDAAILEFLVANEKVQVVNLGCGSDLRMLPLLQMFPHLAYVDIDYNESVELKNSILRESEILRISLGLSKEDTAKSPFLIDQGRYKLAACDLNDITETTRLLDVCTKREIPTIVISECLLCYMHNNESQLLINTIMSKFSHGLWISYDPIGGSQPNDRFGAIMQSNLKESRNLEMPTLMTYNSKEKYASRWSAAPNVIVNDMWEIFNAQIPESERKRLRSLQFLDELEELKVMQTHYILMKAQWHHHHHH”: “soluble”.
Next, “MERISLSFVGDVMLAGSATDTLQRYGYSYPFSATAAELRRSDLVVGNLEAPLTDGGREFRAKRFRFKASPVAAAALKRAGFSVMTLANNHMMDFGADGLSDTIHHLNRNGIAFAGAGPSIADARREASVTVRGQTVAFLAYSLTQPIEFFATEGRPGTAPGYAGHYLADIRRVRSSADHVVVSFHWGQERAALPSPYQIETAHRAIDAGADIVIGHHPHVLQGIEIYRGSPIFYSLGNFAFGSRSPSADRSIIARVTLGEGPPIVEVIPLNVLFREVRFQPAILTGRKAADVVDRLNRLSAPFSTVITSTAGSHLVAPAEANARLARRQLEHHHHHH”: “not soluble”; “MERLSPVFATSKSSNMEVEHWMTSLKEVEKVLDSVEPKLTSSGTKWRVVAQHIKDICSDLNQIFNKEDPRYEVVQAGASAAHDFDVRYLDIHKVRTPHEPLEMRHSKGRKHGREIARLLEKIQKYRQEIEEIKKEYKETDKYRERYDHYKVKLDNLEKKNKDQERIERNQQKFKDAEAAYSSVCADLIQKMETVWKKHVSIFAEAASAVWSTQLQYAKALEAAANPIVPYLQQEEQEEEEEEEAASGTQGRVAEKAYHTNEEKVENSFQKNSAIPPSFRTASEQLTEQSKNINNAKNTSETSPAEDIEA”: “soluble”.
